Laboratory results reported in patent US20210315969A1, “GLYCOPROTEINS HAVING LIPID MOBILIZING PROPERTIES AND THERAPEUTIC USES THEREOF” (Aston University, priority 2008, published 2021).
Marks after values point to notes of the source that are not given here.

What was measured:
adipocytes = assay: Expression of phospho HSL / HSL in adipocytes incubated 3 h with ZAG or isoprenaline; assay type: cell-based, mice; settings: 3 h; isoprenaline 10 μM or ZAG 0.46 μM
C2Cl2 myotubes = assay: ROS formation and PKR/eIF2α phosphorylation in myotubes treated with glucose; assay type: cell-based, murine
Excerpt: FIG. 21 is a graphical diagram showing ROS activity in C2Cl2 myotubes treated with various concentrations of glucose with and without ZAG. Statistically significant c, P<0.001 from control f, P<0.001 from glucose alone.
FIG. 22A is a pictorial diagram of a Western blot showing PKR in C2Cl2 myotubes treated with glucose with and without ZAG. Statistically significant c, P<0.001 from control f, P<0.001 from glucose alone.
FIG. 22B is a pictorial diagram of a Western blot showing elF2a in C2Cl2 myotubes treated with glucose with and without ZAG. Statistically significant c, P<0.001 from control f, P<0.001 from glucose alone.
It has been shown that formation of reactive oxygen species (ROS) is important in protein degradation induced by high glucose load. […] High glucose also induces activation (phosphoiylation) of PKR (FIG. 22A) and the subsequent phosphorylation of elf2α (FIG. 22B) as is seen in skeletal muscle of ob/ob mice, which was also attenuated by ZAG.

[1] = system: protein expression in WAT, BAT and gastrocnemius muscle; assay: Western blot of WAT, BAT and gastrocnemius muscle of rats treated with ZAG; assay type: in vivo, Wistar rats
Method: Samples of cytosolic protein (10 μg) were resolved on 12% sodium dodecylsuiphate polyacrylamide gel electrophoresis and the proteins were then transferred onto 0.45 μm nitrocellulose menibranes, which had been blocked with 5% N,Tarvel in ids-buffered saline, pH 7.5, at 4° C. overnight, and following four 15 min washes with 0.1% Tween in PBS, incubation with the secondary antibody was performed for 1 h at room temperature. Development was by ECL.

[2] = Interval administration / pilot scheduling study of ZAG in ob/ob mice; assay type: in vivo
Method: While not wanting to be limited by theory, it may be that the subjects are receiving too much ZAG or that there is receptor desensitization as is seen with TNF. A pilot study was performed with 2 mice in each group to determine optimal scheduling of ZAG delivery.

[3] = Daily i.v. ZAG in mature male Wistar rats for 10 days (body weight, composition, plasma metabolites); assay type: in vivo
Method: Animals Rais Mature male Wistar rats (one year old from our own colony) weighing 540 ±82.5 g were housed individually and treated once daily i. v., with either ZAG in PBS (100 μl) (50 μg per 100 g body weight), or with PBS (100 μl) as a control. Both food and water intake and body weight were measured daily. Animals were given free access to food (Special Diet Services, Essex, UK) and water ad libitum. The animal experiment was carried out under the welfare conditions imposed by the British Home Office. After 10 days treatment the animals were terminated and the body composition determined. Animals were heated to 80-90° C. for 7 days until constant weight was achieved. The water content was then determined from the difference between the wet and dry weight. Lipids were extracted from the dry carcass using a sequence of chloroform:methanol (1:1), ethanolla.cetone (1:1) and diethyl ether (120 ml of each) as described by Lundholm et al (14). The solvents were evaporated and the fat weighed. The non-fat carcass mass was calculated as the difference between the initial weight of the carcass and the weight of water and fat.
(§1) Serum Metabolite Determinations—Non-esterified fatty acids (NEFA) were determined using a Wako-ASC-ACOD kit (Wako Chemical GmbH, Neuss, Germany). Triglycerides were determined using a Triglyceride kit (Sigma Chemical Co., Poole, United Kingdom) and 3-hydroxybutyrate by a quantitative enzymatic determination kit (Sigma). Glucose was measured using a glucose analyser (Beckman, Irvine, Calif.) and glycerol was determined enzymatically using the method of Wieland as described in “Methods of Enzymatic Analysis” (Ed, Bergmeyer, H. U.) Vol. 3, pp1404-1409, published by Academic Press, London (1974).

[4] = system: epididymal adipocytes, gastrocnemius muscle and BAT; assay: Glucose uptake into epididymal adipocytes, gastrocnemius muscle and BAT of rats treated with ZAG; assay type: in vivo, Wistar rats
Method: FIG. 12D is a graphical diagram showing glucose uptake into gastrocnemius muscle and BAT of male Wistar rats after 10 days treatment with either ZAG or PBS. in the absence or presence of insulin (60 μU/ml). Differences between ZAG and PBS treated animals are shown as a, p<0.05, b, p<0.01 or c, p<0.001, while differences in the presence of insulin are shown as or f, p<0.001.
Glucose (intake into Atlipocpyes Isolated adipocytes (5×10^4) were washed twice in 1 ml Krebs-Ringer bicarbonate buffer, pH 7.2 (KRBS) and further incubated for 10 min at room temperature in 0.5 ml KRBS containing 18.5MBq […]-^14CI deoxy-D-glucose and non-radioactive 2-deoxy-D-glucose to a final concentration of 0.1 mM. Uptake was terminated by the addition of 1 ml ice-cold glucose-free KRBS, and the cells were washed three times with 1 ml KRBS, lysed by addition of 0.5 ml 1 M NaOH and left for at least 1 h at room temperature before the radioactivity was determined by liquid scintillation counting.
Glucose Uptake into Gostrocneinius Muscle—Gastrocnemius muscles were incubated in Krebs-Henseleit bicarbonate butler for 45 min at 37° C. and then incubated for a further 10 min in 5 ml Krebs-Henseleit butler containing 185M Bq 2-[1-^14C]deoxy-D-glucose and non-radioactive 2-deoxy-D-glucose to a final concentration of 0.1 mM. The muscles were then removed and washed in 0.9% NaCl for 5 min followed by dissolution in 0.5 ml 1M NaOH and the radioactivity was determined by liquid scintillation counting.

[5] = 21 day study of ZAG in ob/ob mice; assay type: in vivo
Method: FIG. 7A is a graphical diagram showing weight loss of the ob/ob mice during the 21 day study. ZAG was injected at days 1, 4, 5, 8, 13, 16, 18, and 19; PBS was injected at the same time points.
Animals—Mice—Homozygous obese (ob/ob) mice from the colony maintained at Aston University were used in the present study. The origin and characteristics of Aston ob/ob mice have been previously described. Male mice (20-21 weeks old, weight 90-100 g) were grouped into three per cage in an air conditioned room at 22 ±2° C. with a 12 h-light:12 h-dark cycle and fed a rat and mouse breeding diet (Special Diet Services, Witham, UK) and tap water ad libitum. They were administered ZAG (35 μg) in PBS (100 μl) b.d. by i.v. administration and body weight and food and water intake were monitored daily. Control mice received PBS alone. Body temperature was measured daily by the use of a rectal thermometer (RS Components, Northants, UK). All animal experiments were carried out in accordance with the U.K. Animals (Scientific Procedures) Act 1986.
as §1

B1: Zinc-α2-glycoprotein (protein, listed as Homo sapiens)
chain: QENQDGRYSLTYIYTGLSKHVEDVPAFQALGSLNDLQFFRYNSKDRKSQPMGLWRQVEGMEDWKEDSQLQKAREDMETLKDIVEYYNDSNGSHVLQGRFGCEIENNRSSGAFWKYYYDGKDYIEFNKEIPAWVPFDPAAQITKQKWEAEPVYVQRAKAYLEEECPATLRKYLKYSKNILDRQDPPSVVVTSHQAPGEKKKLKCLAYDFYPGKIDVHWTRAGQVQEPELRGDVLHNGNGTYQSWVVVAVPPQDTAPYSCHVQHSSLAQPLVVPWEAS
notes: recombinant human Zinc-α2-glycoprotein, lipid mobilizing factor, expressed in HEK293F cells
expression of phospho HSL in adipocytes (adipocytes): increased expression of phospho HISL | glucose induced phosphorylation of PKR and eIF2α (C2Cl2 myotubes): attenuated | increase in ROS produced by glucose (C2Cl2 myotubes): completely attenuates | expression of glucose transporter 4 (GLUT4) in BAT, WAT and skeletal muscle ([1]; 10 days): increased expression | expression of phosphorylated forms of PKR and eIF2 α-subunit in gastrocnemius muscle ([1]; total amount did not change): significant reduction | weight loss on long-term daily administration [2]: cessation of weight loss | weight loss with break of 3-4 days followed by re-infusion [2]: continued weight loss | Starting weight ([3]; male rats, before treatment): 530 ± 45 g | Triglycerides (plasma) ([3]; rats treated for 10 days): 1.1 ± 0.09^a mmol/l | decrease in plasma levels of non-esterified fatty acids (NEFA) ([3]; rats, 10 days): 55% | elevation in body temperature ([3]; rats, significant within 24 h of first administration): 0.4 °C | glucose uptake into gastrocnemius muscle and BAT ([4]; absence of insulin, vs PBS): small, non-significant increase | glucose uptake into adipocytes, ZAG versus PBS treated animals ([4]; presence of insulin (60 μU/ml)): no significant difference | glucose uptake into gastrocnemius muscle and BAT ([4]; presence of insulin (60 μU/ml)): significant increase in uptake | urinary glucose excretion ([5]; first 5 days and 21 day study): progressive decrease | peak body temperature ([5]; just before maximum weight loss): 38.1 °C | Start weight ([5]; ob/ob mice, 21 day study, before treatment, in g): 93.1 ± 1.9 | BAT ([5]; ob/ob mice, Day 21 (Table 3)): 0.41 ± 0.35 g | Gastrocnemius ([5]; ob/ob mice, Day 21 (Table 3)): 0.39 ± 0.12 g | Soleus ([5]; ob/ob mice, Day 21 (Table 3)): 0.18 ± 0.07 g
